{"source": "patent US10704030B2", "about": "“P450-BM3 variants with improved activity” (Codexis, Inc., priority 2015, dated 2020)", "molecules": {"B1": {"name": "SEQ ID NO: 4: P450-BM3 parental backbone from the commercially available MCYP panel (MCYP-0343; Codexis) (protein)", "chain": "MTIKEMPQPKTFGELKNLPLLNTDKPVQALMKIADELGEIFKFEAPGCVTRYLSSQRLIKEACDESRFDKNLSQALKFARDFAGDGLVTSWTHEINWKKAHNILLPSFSQQAMKGYHAMMVDIAVQLVQKWERLNADEHIEVSEDMTRLTLDTIGLCGFNYRFNSFYRDQPHPFIISMVRALDEVMNKLQRANPDDPAYDENKRQCQEDIKVMNDLVDKIIADRKARGEQSDDLLTQMLNGKDPETGEPLDDGNISYQIITFLIAGHETTSGLLSFALYFLVKNPHVLQKVAEEAARVLVDPVPSYKQVKQLKYVGMVLNEALRLWPTAPAFSLYAKEDTVLGGEYPLEKGDEVMVLIPQLHRDKTIWGDDVEEFRPERFENPSAIPQHAFKPFGNGQRACIGQQFALHEATLVLGMMLKHFDFEDHTNYELDIKETLTLKPEGFVVKAKSKKIPLGGIPSPSTEQSAKKVRKKAENAHNTPLLVLYGSNMGTAEGTARDLADIAMSKGFAPQVATLDSHAGNLPREGAVLIVTASYNGHPPDNAKQFVDWLDQASADEVKGVRYSVFGCGDKNWATTYQKVPAFIDETLAAKGAENIADRGEADASDDFEGTYEEWREHMWSDVAAYFNLDIENSEDNKSTLSLQFVDSAADMPLAKMHGAFSTNVVASKELQQPGSARSTRHLEIELPKEASYQEGDHLGVIPRNYEGIVNRVTARFGLDASQQIRLEAEEEKLAHLPLAKTVSVEELLQYVELQDPVTRTQLRAMAAKTVCPPHKVELEALLEKQAYKEQVLAKRLTMLELLEKYPACEMKFSEFIALLPSIRPRYYSISSSPRVDEKQASITVSVVSGEAWSGYGEYKGIASNYLAELQEGDTITCFISTPQSEFTLPKDPETPLIMVGPGTGVAPFRGFVQARKQLKEQGQSLGEAHLYFGCRSPHEDYLYQEELENAQSEGIITLHTAFSRMPNQPKTYVQHVMEQDGKKLIELLDQGAHFYICGDGSQMAPAVEATLMKSYADVHQVSEADARLWLQQLEEKGRYAKDVWAG", "modifications": "P450_BM3"}, "B2": {"name": "SEQ ID NO: 2: P450-BM3 parental backbone from the commercially available MCYP panel; a chimera, P450 domain 86% identical to Bacillus subtilis P450 (protein)", "chain": "MLMKQASAIPQPKTYGPLKNLPHLEKEQLSQSLWRIADELGPIFRFDFPGVSSVFVSGHNLVAEVCDEERFDKSIEGALEKVRAFSGDGLATSWTHEPNWRKAHNILMPTFSQRAMKDYHEKMVDIATQLIQKWSRLNPNEEIDVADDMTRLTLDTIGLCGFNYRFNSFYRDQPHPFITSMVRALDEAMNKLQRANPDDPAYDENKRQFQEDIKVMNDLVDSIIAERRANGDQDEKDLLARMLNVEDPETGEKLDDENIRFQIITFLIAGHETTSGLLSFAIYCLLTHPEKLKKAQEEADRVLTDDTPEYKQIQQLKYIRMVLNETLRLYPTAPAFSLYAKEDTVLGGEYPISKGQPVTVLIPKLHRDQNAWGPDAEDFRPERFEDPSSIPHHAYKPFGNGQRACIGMQFALQEATMVLGLVLKHFELINHTGYELKIKEALTIKPDDFKITVKPRKTAAINVQRKEQAEQSAKKVRKKAENAHNTPLLVLYGSNMGTAEGTARDLADIAMSKGFAPQVATLDSHAGNLPREGAVLIVTASYNGHPPDNAKQFVDWLDQASADEVKGVRYSVFGCGDKNWATTYQKVPAFIDETLAAKGAENIADRGEADASDDFEGTYEEWREHMWSDVAAYFNLDIENSEDNKSTLSLQFVDSAADMPLAKMHGAFSTNVVASKELQQPGSARSTRHLEIELPKEASYQEGDHLGVIPRNYEGIVNRVTARFGLDASQQIRLEAEEEKLAHLPLAKTVSVEELLQYVELQDPVTRTQLRAMAAKTVCPPHKVELEALLEKQAYKEQVLAKRLTMLELLEKYPACEMKFSEFIALLPSIRPRYYSISSSPRVDEKQASITVSVVSGEAWSGYGEYKGIASNYLAELQEGDTITCFISTPQSEFTLPKDPETPLIMVGPGTGVAPFRGFVQARKQLKEQGQSLGEAHLYFGCRSPHEDYLYQEELENAQSEGIITLHTAFSRMPNQPKTYVQHVMEQDGKKLIELLDQGAHFYICGDGSQMAPAVEATLMKSYADVHQVSEADARLWLQQLEEKGRYAKDVWAG", "modifications": "P450_BM3", "notes": "P450-BM3 parental backbone from the commercially available MCYP panel; a chimera, P450 domain 86% identical to Bacillus subtilis P450"}}, "type_in_all_cases": "biochemical", "key": {"[1]": {"experiment": "Validation of generalist properties: oxidation of gefitinib by lyophilized P450-BM3 variant, UPLC-MS", "details": "for % Conv. / TON: [Gefitinib] = 1 mM; for TON: TON = [substrate]*% conversion/[P450]", "description": "(§1) For the production of lyophilized protein powders, LB agar plates supplemented with chloramphenicol (30 μg/mL) were streaked with E. coli containing a desired B. megaterium P450-BM3 variant in an IPTG-inducible vector. The plates were grown at 37° C. for 16 hrs before single clones were selected to inoculate a 15 mL Falcon™ tube (Fisher) containing TB media (3 mL) supplemented with chloramphenicol (30 μg/mL). The tube was shaken at 200 rpm, 30° C., and 85% humidity for 20-24 h to grow the cultures to saturation. Then, 2.5 mL of the overnight culture was used to inoculate sterile 1 L flasks containing TB medium (250 mL) supplemented with chloramphenicol (30 μg/mL), trace element solution (as described above), and 0.05 g/L ammonium iron (III) citrate. After being shaken at 250 rpm, 30° C., and 85% humidity to an OD600 of 0.8-1.2, P450 expression was induced by addition of IPTG (500 uM) and the heme precursor 5-aminolevulinic acid (5-ALA) to a final concentration of 500 uM. The cultures were grown for additional 20-24 hours and centrifuged in pre-weighed 250 mL centrifuge bottles for 20 minutes at 4000 rpm, 4° C. The supernatants were discarded, and the centrifuge bottles containing cell pellets were weighed. The pellets were resuspended in 50 mM potassium phosphate buffer with 2 mM DTT, pH 8.0 (5 mL of buffer per gram of cell pellet). The cells were lysed using a microfluidizer homogenizer, and the suspensions of cells and lysate were collected in sterile 50 mL centrifuge tubes. The samples were centrifuged for 30 minutes at 10,000 rpm, 4° C. The clarified lysate was collected into a plastic petri plate and frozen at −80° C. prior to lyophilization. The enzyme-containing lysates were lyophilized using standard methods known in the art.\n(§2) Enzyme stocks (˜12 μM) were prepared by dissolving ˜20 mg of each enzyme in 100 mM potassium phosphate buffer, pH 8.0 (1 mL). The concentration of each enzyme stock solution was determined by the UV-visible absorption spectroscopy (after centrifugation to remove particulates) and diluted to standardize at 12 μM heme protein. Substrate solutions were prepared by dissolving each substrate in DMSO to reach a final concentration of 20 mM or 40 mM. Reaction mix (235 μL) followed by enzyme solution (50 μL) was added to the plates. The substrate stock solution was added to the enzyme solutions (15 μL at the two different concentrations). Each reaction contained 100 mM potassium phosphate, 1.0 mM NADP+, 25 mM glucose, 0.5 mg/mL glucose dehydrogenase, 5% DMSO and substrate at 1 or 2 mM. Loratadine, imatinib, and gefitinib (See, FIG. 1) were selected as substrates in addition to diclofenac to validate improved BM3 variants. The reactions were shaken at 450 rpm at 30° C. over 24 hours. All reactions were diluted with acetonitrile to a final concentration of 0.5 mM substrate. The plates were then centrifuged at 3,000 g for 1 hour at 20° C. The supernatant was diluted 1:1 with acetonitrile, filtered using a 0.4 micron filter, and analyzed by UPLC-MS.\n(§3) For UPLC-MS analysis, the quenched and filtered reactions were transferred to 96-well HTP plates for analysis by UPLC on a Waters Acquity H-class system equipped with an autosampler. 1 uL of quenched sample was injected onto an Acquity UPLC HSS T3 column, 100 Å, (1.8 um; 2.1×100 mm). The column was eluted at a constant flow rate of 0.6 mL/min; conditions with solvent A (0.05% trifluoroacetic acid v/v, in H2O) and solvent B (0.05% trifluoroacetic acid v/v, in acetonitrile) used to elute the products of the reaction were: 0-2 min, A/B 95:5; 2-2.9 min, A/B 5:95; 2.9-3 min, A/B 95:5; 3-3.5 min, A/B 95:5. Column eluent was monitored by PDA (200-600 nm) prior to MS analysis in positive ESI mode (desolvation temperature 350° C., 3.25 kV spray voltage, cone voltage 25V). The column eluent was diverted to waste for the first 0.7 minutes of the run. For the remainder of the LC run, both MS (m/z 95-600 scan range) and MS/MS were collected. […]"}, "[2]": {"experiment": "Validation of generalist properties: oxidation of diclofenac by lyophilized P450-BM3 variant, UPLC-MS", "details": "for % Conv. / TON: [Diclofenac] = 1 mM; for TON: TON = [substrate]*% conversion/[P450]", "description": "as §1, §2, §3"}, "[3]": {"experiment": "Validation of generalist properties: oxidation of loratadine by lyophilized P450-BM3 variant, UPLC-MS", "details": "for % Conv. / TON: [Loratadine] = 1 mM; for TON: TON = [substrate]*% conversion/[P450]", "description": "as §1, §2, §3"}, "[4]": {"experiment": "Validation of generalist properties: oxidation of imatinib by lyophilized P450-BM3 variant, UPLC-MS", "details": "for % Conv. / TON: [Imatinib] = 1 mM; for TON: TON = [substrate]*% conversion/[P450]", "description": "as §1, §2, §3"}}, "data": [{"molecule": "B1", "values": [{"measurement": "% Conv.", "setting": "[1]", "value": "+ (0-5.00)"}, {"measurement": "TON", "setting": "[1]", "value": "‡ (0-1000)"}, {"measurement": "performance (% conversion at 1 mM substrate loading), in words", "setting": "[1]; gefitinib, 1 mM substrate loading", "value": "low activity"}, {"measurement": "% Conv.", "setting": "[2]", "value": "+++ (10.01-15.00)"}, {"measurement": "TON", "setting": "[2]", "value": "‡‡‡ (5001-10000)"}, {"measurement": "performance (% conversion at 1 mM substrate loading), in words", "setting": "[2]; diclofenac, 1 mM substrate loading", "value": "moderate activity"}, {"measurement": "% Conv.", "setting": "[3]", "value": "++++ (15.01-20.00)"}, {"measurement": "TON", "setting": "[3]", "value": "‡‡‡‡ (10000-50000)"}, {"measurement": "performance (% conversion at 1 mM substrate loading), in words", "setting": "[3]; loratadine, 1 mM substrate loading", "value": "moderate activity"}, {"measurement": "% Conv.", "setting": "[4]", "value": "++ (5.01-10.00)"}, {"measurement": "TON", "setting": "[4]", "value": "‡‡ (1001-5000)"}, {"measurement": "performance (% conversion at 1 mM substrate loading), in words", "setting": "[4]; imatinib, 1 mM substrate loading", "value": "low activity"}]}, {"molecule": "B2", "values": [{"measurement": "% Conv.", "setting": "[1]", "value": "+ (0-5.00)"}, {"measurement": "TON", "setting": "[1]", "value": "‡ (0-1000)"}, {"measurement": "% Conv.", "setting": "[2]", "value": "+ (0-5.00)"}, {"measurement": "TON", "setting": "[2]", "value": "‡ (0-1000)"}, {"measurement": "% Conv.", "setting": "[3]", "value": "+ (0-5.00)"}, {"measurement": "TON", "setting": "[3]", "value": "‡ (0-1000)"}, {"measurement": "% Conv.", "setting": "[4]", "value": "++ (5.01-10.00)"}, {"measurement": "TON", "setting": "[4]", "value": "‡‡ (1001-5000)"}]}]}
